Assay results published in US20240344138A1, “TARGETED THERAPIES IN CANCER” (Feng Biosciences, Inc, priority 2021, published 2024).

Key:
[1] = test system: stage III or IV of ovarian cancer; settings: ovarian cancer stage III or IV after initial surgery; bevacizumab added to carboplatin and paclitaxel versus without; cited from earlier work
[2] = test system: metastatic colorectal cancer patients; experiment: Retrospective analysis of anti-angiogenic therapy (bevacizumab) in metastatic colorectal cancer by TME phenotype; assay type: in vivo, human; settings: A and IS patients
Experimental: The analysis includes 60 colorectal cancer tumor samples.
To test if TME phenotypes correlate with clinical outcomes when patients are treated with an angiogenesis inhibitor, tumor stroma RNA gene signatures are analyzed from archival tissues collected from 60 colorectal cancer patients (30 left-sided, 30 right-sided) using an ANN classifier such as the TME Panel-1 classifier. The correlation between each TME phenotype is tested against clinical outcome data. In A and IS patients, the use of bevacizumab confers gains in comparison to patients classified to IA and ID TME phenotypes: in A and IS patients median PFS and OS shifts to 15 months and 39 months, respectively. Progression-free survival and OS data in IA and ID patients are consistent with historical values. Overall, the A and IS TME phenotypes correlate specifically with improved clinical outcomes with angiogenesis inhibitors and has a predictive effect with respect to PFS.

mCRC = settings: phase II single arm study; cited from earlier work
[3] = test system: advanced colorectal cancers metastatic to liver (mCRC); settings: 3L+ mCRC metastatic to liver; cited from earlier work
[4] = test system: colorectal cancer in dMMR or MSI-H status patients; experiment: Clinical trial of bavituximab and an anti-PD-1 checkpoint inhibitor in dMMR or MSI-H colorectal cancer, outcome by TME phenotype; assay type: in vivo, human
Experimental: A clinical trial is run to determine whether colorectal cancer TME phenotypes correlate to clinical responses when patients with dMMR or MSI-H status are treated with a combination of a checkpoint inhibitor and bavituximab. The analysis includes 40 colorectal cancer tumor samples.
An anti-PD-1 checkpoint inhibitor is known to increase PFS and OS in dMMR or MSI-H status patients with advanced colorectal cancer (CRC), compared to chemotherapy. CRC patients with dMMR or MSI-H have the option of anti-PD-(L)1 after advancement on appropriate front-line therapy. Patients are classified according to an ANN method such as the TME Panel-1 classifier. […] RNA gene signatures are analyzed from biopsy samples prior to treatment with anti-PD-1. The TME phenotypes are correlated with ORR and with 20-week PFS. […] 40 patients are enrolled, 10 in each of the 4 TME phenotypes. The correlation between each tumor TME phenotype is tested against clinical outcome data. In IA or IS patients the use of bavituximab and anti-PD-(L)1 confers gains in comparison to patients classified to angiogenic (A), and immune desert (ID) TME phenotypes as shown in TABLE 18.

melanoma = experiment: Phase 2 trial of adjuvant bavituximab and radiation after neoadjuvant immune checkpoint inhibitor, outcome by TME phenotype; assay type: in vivo, human
Experimental: A phase 2 clinical trial is run to determine whether melanoma tumor microenvironment phenotypes correlate to clinical responses when patients are treated with adjuvant Bavituximab and radiation following neoadjuvant immune checkpoint inhibitor treatment and surgical resection of stage 2b lymph nodes. The analysis includes samples from 20 patients. RNA gene signatures are analyzed from tumor samples acquired as surgical resections and TME phenotypes are determined. Patients are followed for ORR.
Melanoma patients receive a course of neoadjuvant immune checkpoint inhibitor (anti-PD-(L)1—i.e., an inhibitor to PD-1 or PD-L1) therapy and their stage 2b lymph nodes are resected. Radiation and Bavituximab are given as adjuvant therapy. The TME phenotypes from resected tumor samples are correlated to ORR. […] (20) patients are enrolled, with equal representation across the 4 stromal phenotypes (5 in each phenotype). The correlation between each TME phenotype is tested against clinical outcome data. In biomarker positive patients, represented by immune active (IA) and immune suppressed (IS) phenotypes, the use of the regimen of Bavituximab/radiation confers benefit in comparison to patients classified as biomarker negative, comprised of angiogenic (A) and immune desert (ID) TME phenotype classes, as shown in the TABLE 33.

[5] = test system: advanced solid tumors in colorectal, triple-negative breast cancer, gastric, and ovarian cancers; experiment: Phase 2 open-label basket study of navicixizumab monotherapy or with paclitaxel or irinotecan, retrospective analysis by TME phenotype; assay type: in vivo, human; settings: combined A and IS groups
Experimental: A retrospective analysis of a signal-finding Phase 2 clinical trial is conducted. Patient samples from thirty patients in a phase 2, multicenter, open-label basket study of navicixizumab monotherapy or in combination with the chemotherapeutics paclitaxel or irinotecan in patients with advanced solid tumors in colorectal, triple-negative breast cancer, gastric, and ovarian cancers. Patients in the combined A and IS groups that received navicixizumab monotherapy have an ORR greater than 40%. Patients in the combined A and IS groups that receive navicixizumab and chemotherapy have an ORR greater than 50%.

carboplatin and paclitaxel
Progression-free survival [1]: 13 months

bevacizumab
median OS [2]: 39 months
median PFS [2]: 15 months
Progression-free survival [1]: 18 months

ramucirumab plus FOLFIRI: anti-angiogenic ramucirumab plus the chemotherapeutic FOLFIRI
ORR (mCRC): 58%
OS (mCRC): 20.4 mos
PFS (mCRC): 11.5 months

trifluoridine/tipiracil
median OS (mOS) [3]: ~7 months
median PFS (mPFS) [3]: ~2 months

CNC(=O)c1cc(Oc2ccc(NC(=O)Nc3ccc(Cl)c(C(F)(F)F)c3)c(F)c2)ccn1 [regorafenib]
median OS (mOS) [3]: ~7 months
median PFS (mPFS) [3]: ~2 months

B1: bavituximab and an anti-PD-1 checkpoint inhibitor: phosphotidylserine-targeting antibody bavituximab in combination with anti-PD-1 (antibody, chains of the INN, looked up, V domains shown)
VH: EVQLQQSGPELEKPGASVKLSCKASGYSFTGYNMNWVKQSHGKSLEWIGHIDPYYGDTSYNQKFRGKATLTVDKSSSTAYMQLKSLTSEDSAVYYCVKGGYYGHWYFDVWGAGTTVTVSS
VL: DIQMTQSPSSLSASLGERVSLTCRASQDIGSSLNWLQQGPDGTIKRLIYATSSLDSGVPKRFSGSRSGSDYSLTISSLESEDFVDYYCLQYVSSPPTFGAGTKLELK
modifications: plus anti-PD-1 checkpoint inhibitor
ORR (%) ([4]; A (n = 10)): 0%
PFS % at 20 weeks ([4]; A (n = 10)): 0%
ORR (%) ([4]; IA (n = 10)): 90%
PFS % at 20 weeks ([4]; IA (n = 10)): 100%
ORR (%) ([4]; ID (n = 10)): 0%
PFS % at 20 weeks ([4]; ID (n = 10)): 0%
ORR (%) ([4]; IS (n = 10)): 90%
PFS % at 20 weeks ([4]; IS (n = 10)): 100%

B2: Bavituximab plus radiation (antibody, chains of the INN, looked up, V domains shown)
VH: B1 VH
VL: B1 VL
modifications: plus radiation
Overall response rate (ORR) (melanoma; Biomarker Negative (n = 10)): 60%
Overall response rate (ORR) (melanoma; Biomarker Positive (n = 10)): 90%
Overall response rate (ORR) (melanoma; TME phenotype A (n = 5)): 60%
Overall response rate (ORR) (melanoma; TME phenotype IA (n = 5)): 80%
Overall response rate (ORR) (melanoma; TME phenotype ID (n = 5)): 60%
Overall response rate (ORR) (melanoma; TME phenotype IS (n = 5)): 100%

B3: navicixizumab (antibody, chains of the INN, looked up, V domains shown)
VH: QVQLVQSGAEVKKPGASVKISCKASGYSFTAYYIHWVKQAPGQGLEWIGYISNYNRATNYNQKFKGRVTFTTDTSTSTAYMELRSLRSDDTAVYYCARDYDYDVGMDYWGQGTLVTVSS
VL: DIVMTQSPDSLAVSLGERATISCRASESVDNYGISFMKWFQQKPGQPPKLLIYAASNQGSGVPDRFSGSGSGTDFTLTISSLQAEDVAVYYCQQSKEVPWTFGGGTKVEIK
VH2: QVQLVQSGAEVKKPGASVKVSCKASGYTFTNYWMHWVRQAPGQGLEWMGDINPSNGRTSYKEKFKRRVTLSVDKSSSTAYMELSSLRSEDTAVYFCTIHYDDKYYPLMDYWGQGTLVTVSS
VL2: B3 VL
notes: anti-VEGF/anti-DLL4 bispecific antibody
ORR [5]: greater than 40%
